The assay addresses T1, HDA9-3xFLAG (HISTONE DEACETYLASE 9, pHDA9::HDA9-3xFLAG/hda9) (Arabidopsis thaliana, UniProt Q8H0W2 1-426).
T1 construct: Histone deacetylase 9 (HDA9), RPD3-type deacetylase, Arabidopsis thaliana; genomic DNA with its 1 kb promoter cloned into pEarleyGate302; Primers are in Supplementary file 1; also called HDA9-FLAG; source: Arabidopsis transgenic plants (native HDA9 promoter, hda9 background): in leaf extract for IP-MS; purified on anti-FLAG M2 beads with 3xFLAG peptide elution for the pull-down
T1 sequence (looked up): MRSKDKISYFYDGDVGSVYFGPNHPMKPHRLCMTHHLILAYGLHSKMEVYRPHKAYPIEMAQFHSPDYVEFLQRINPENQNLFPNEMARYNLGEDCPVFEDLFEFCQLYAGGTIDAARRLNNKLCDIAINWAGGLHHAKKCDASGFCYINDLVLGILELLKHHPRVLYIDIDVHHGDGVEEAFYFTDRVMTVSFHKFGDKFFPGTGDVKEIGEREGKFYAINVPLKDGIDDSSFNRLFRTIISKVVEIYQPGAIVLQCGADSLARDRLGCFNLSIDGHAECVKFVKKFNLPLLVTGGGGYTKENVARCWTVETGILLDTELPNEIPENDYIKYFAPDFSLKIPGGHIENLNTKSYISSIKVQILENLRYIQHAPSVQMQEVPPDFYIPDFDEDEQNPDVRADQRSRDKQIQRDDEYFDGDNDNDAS
Kind of assay: pull-down; purified HDA9-FLAG incubated with GST-tagged protein in 20 mM Tris-HCl 8.0, 200 mM NaCl, 1 mM EDTA, 0.5% Nonidet P-40 for one hour, then Glutathione Sepharose 4B beads for one hour at 4°C; detected with anti-GST and anti-FLAG; two technical replicates. As to conditions: both partners purified.

B1: GST-WRKY53 (GST tagged full-length WRKY53) (natural protein, Arabidopsis thaliana, UniProt Q9SUP6 1-324, looked up)
chain: MEGRDMLSWEQKTLLSELINGFDAAKKLQARLREAPSPSSSFSSPATAVAETNEILVKQIVSSYERSLLLLNWSSSPSVQLIPTPVTVVPVANPGSVPESPASINGSPRSEEFADGGGSSESHHRQDYIFNSKKRKMLPKWSEKVRISPERGLEGPQDDVFSWRKYGQKDILGAKFPRSYYRCTHRSTQNCWATKQVQRSDGDATVFEVTYRGTHTCSQAITRTPPLASPEKRQDTRVKPAITQKPKDILESLKSNLTVRTDGLDDGKDVFSFPDTPPFYNYGTINGEFGHVESSPIFDVVDWFNPTVEIDTTFPAFLHESIYY
notes: WRKY53 transcription factor, Arabidopsis thaliana; full-length cDNA cloned into pGOOD (pGEX-6P modified by adding a 6XHIS tag at the C terminus); Primers are in Supplementary file 1; source: E. coli, induced with 200 uM IPTG for three hours at 37°C, purified
Consider B1, for which the binding result is “binds”.

(Values after paper PMC5119886, “POWERDRESS interacts with HISTONE DEACETYLASE 9 to promote aging in Arabidopsis” (eLife, 2016).)
